Data as given in patent US20220380473A1, “ANTI-GAL3 ANTIBODIES AND USES THEREOF” (TrueBinding, Inc., priority 2019, published 2022).

Assays:
[1] = test system: human dendritic cells (DC), M1 and M2 macrophage cells; experiment: Flow cytometry staining of human DC, M1 and M2 macrophages; format: cell-based; details: 10 μg/ml
Method: First Human CD14 monocytes were isolated from peripheral blood mononuclear cells (PBMC) with a CD14 cell positive selection kit (Miltenyi, Auburn, Calif.) and differentiated into dendritic cells (DC), or into M1 macrophages, or into M2 macrophages in the presence of GM-CSF plus IL-4, or GM-CSF, or M-CSF (Rocky Hill, N.J.), respectively. Then flow cytometry analysis was performed to detect Gal3 expression on human dendritic cells (DC), M1 and M2 macrophage cells. In details, 100,000 DC, M1 or M2 cells were incubated with 100 μl 10% FBS HBSS solution that contains with control mIgG-biotin (BioLegend) or IMT001-biotin at 10 μg/ml on ice for 20 minutes. Then cells were washed and incubated with PE-streptavidin (BioLegend) at 1:1000 on ice for 20 min. After spinning, live/dead cells were stained with Violet dead cell stain kit (Life Technologies). Stained cells were subjected to flow analysis.

Galectin-3 = Galectin-3 (Homo sapiens, UniProt P17931); experiment: SPR (BiacoreT200) binding affinity; details: 25° C., read-out: hGal-3 KD
Chain of Galectin-3 (P17931 whole entry): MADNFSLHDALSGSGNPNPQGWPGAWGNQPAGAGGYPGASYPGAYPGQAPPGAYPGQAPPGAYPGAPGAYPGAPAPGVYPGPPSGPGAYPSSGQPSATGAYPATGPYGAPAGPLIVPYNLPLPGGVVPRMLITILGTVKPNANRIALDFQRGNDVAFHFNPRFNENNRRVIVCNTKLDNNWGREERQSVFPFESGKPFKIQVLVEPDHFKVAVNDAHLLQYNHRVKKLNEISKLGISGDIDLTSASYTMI

4T1 cells = experiment: 4T1 orthotopic tumor induced lung metastasis model; format: in vivo, mouse; details: 10 mg/Kg i.p., day 30, vs isotype control
Method: On the day of tumor implantation, 4T1 cells were collected, washed and resuspended in PBS. Mice were anesthetized by inhalation anesthetic (3 to 5% Isoflurane in medical grade air). 2×10^5 cells in 0.1 mL PBS were subcutaneously injected into the mammary gland by using a syringe with a 25-ga needle. Mice were randomly assigned into two groups (n=10). […] The tumor volumes and body weights were monitored twice per week. On day 30, the mice were humanely sacrificed and lung tissues were inflated with 30% sucrose, removed and fixed in Bouin's solution (Sigma-Aldrich). […] Results were expressed as mean±SEM.

[2] = target: T1, association of GAL3 and TIM3 (Homo sapiens, UniProt P17931); experiment: GAL3-TIM3 blocking ELISA (Examples 24, 27); format: binding; details: 3 ug/mL antibody
T1 construct: full-length human Galectin-3 protein (Acro Biosystems, GA3-H5129); linker-spaced 6-histidine tag; purchased Acro Biosystems GA3-H5129 (Gal3); TM3-H5229 (TIM-3)
T1 sequence (P17931 2-250 limits assumed): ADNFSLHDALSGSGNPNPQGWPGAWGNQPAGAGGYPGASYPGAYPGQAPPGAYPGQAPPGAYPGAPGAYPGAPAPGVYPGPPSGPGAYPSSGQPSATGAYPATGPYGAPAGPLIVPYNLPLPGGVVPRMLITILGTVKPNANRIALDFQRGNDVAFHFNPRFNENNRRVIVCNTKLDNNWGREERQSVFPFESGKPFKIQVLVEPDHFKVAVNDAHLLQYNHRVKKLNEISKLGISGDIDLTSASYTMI
How it was run: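 Plates coated with human Galectin-3 at 3 μg/ml, blocked with 2% BSA, then given hybridoma supernatant, antibody or inhibitor (3-fold dilutions from 20 μg/ml, 60 μg/ml or 180 μM) plus 2 μg/ml human TIM3 added 1:1, 1 h at room temperature. Bound TIM3 detected by biotinylated anti-TIM3, avidin-HRP and TMB at 450 nm.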

[3] = test system: mouse bleomycin-induced lung fibrosis model; experiment: Mouse bleomycin-induced lung fibrosis model; format: in vivo
Method: Fibrosis of the lung represents an additional significant form of fibrotic disease with significant health impacts in humans. To evaluate if the anti-fibrotic effects of GAL3-TIM3 blockade extend into the setting of lung fibrosis, a mouse bleomycin-induced lung fibrosis model was evaluated for sensitivity to mIMT001. Briefly, C57Blck/6 male mice were injected intra-tracheally with 30 ug of Bleomycin Sulfate (MP biomedicals, cat #190306) reconstituted in 50 ul of PBS. Mice were treated on day 18, 20, 22, and 24 with mIgG2b isotype control, anti-GAL3 antibody (mIMT001) (10 mg/kg) by tail vein injection, or small molecule TD139 (Med Chem Express, cat #HY-19940) at 10 uM in 50 ul of Captisol (Med Chem Express, cat #HY-17031) injected intra-tracheally. Mice were sacrificed on day 27 and lungs were surgically dissected and fixed in 4% paraformaldehyde for 24 hours, exchanged into 70% ethanol, and embedded in paraffin. Lung fibrosis in fixed specimens was evaluated by Masson's trichrome staining kit (26367) from Electron Microscopy Sciences (Hatfield, Pa.). […] lung sections were affixed to glass slides, After deparaffinization, rehydration in serial ethanol baths. Staining was performed by incubating in Bouin's fixative for 1 h at 56 degree, staining with Briebrich Scarlet/acid fuchsin, Phosphomolybdic Acid-Phosphotungstic Acid and Aniline Blue, then differentiated in acetic acid, prior to their dehydration, clearing and mounting.

B1: IMT001: anti-Gal3 monoclonal antibody (Immutics); printed as mIMT001 (IMT001), murine (antibody, V domains shown)
VH: QIQLVQSGPELKKPGETVKISCKASGYTFTNYGMNWVKQAPGKGLKWMGWINTNTGEPTYVEEFKGRFAFSLETSASTAYLQINNLKNEDTATYFCAPYDNFFAYWGQGTLVTVSA
VL: DIVITQDELSNPVTSGESVSISCRSSKSLLYKDGKTYLNWFLQRPGQSPQLLIYLMSTHASGVSDRFSGSGSGTDFTLEISRVKAEDVGVYYCQQLVDYPLTFGAGTKLELK
- staining of dendritic cells and M1 macrophages [1]: could not be stained
- mean fluorescence intensity (MFI) of stained M2 cells vs isotype control ([1]; human M2 macrophages): much higher
- Kd (Galectin-3): 1.67 nM
- lung metastatic number (4T1 cells): significant reduction of lung metastatic number
- GAL3-TIM3 Blocking @ 3 ug/mL [2]: 80%
- Ashcroft score ([3]; 10 mg/kg tail vein day 18, 20, 22, 24, isotype 5.74): 4.09
- decrement in fibrotic injury ([3]; vs isotype control): 29%
- lung fibrosis, Masson's trichrome ([3]; vs isotype control): substantially reduced
